Data on four molecules can be found in patent publication US20250179205A1 (Hoffmann-La Roche, published 2025).

Assay [1] addresses T1, His-tagged human dimeric FAP (recombinant FAP_ECD) (human, UniProt Q12884 27-760).
T1 construct: also called hu FAP ectodomain + poly-lys-tag + his6-tag
As to the kind of experiment: SPR (Biacore T200), His-tagged dimeric huFAP ECD captured by anti-His, antibody as analyte, 1:1 fit (avidity). As to the method: The capacity of the bispecific constructs to bind human FAP was assessed by surface plasmon resonance (SPR). All SPR experiments were performed on a BIACORE® T200 (BIACORE®) at 25° C. with HBS-EP as running buffer (0.01 M HEPES pH 7.4, 0.15 M NaCl, 3 mM EDTA, 0.005% Surfactant P20, (BIACORE®).
His-tagged human dimeric FAP (recombinant FAP_ECD) was captured on a CM5 chip (GE Healthcare) immobilized with anti-His antibody (Qiagen Cat. No. 34660) by injection of 500 nM huFAP for 60 s at a flow rate of 10 uL/min, 10 nM murine FAP for 20 s at a flow rate of 20 uL/min and 10 nM cynoFAP for 20 s at a flow rate of 20 uL/min. Immobilization levels for the anti-His antibody of up to 18000 resonance units (RU) were used. Following the capture step, the bispecific antibodies as well as control molecules were immediately passed over the chip surface at a concentration ranging from 0.78-100 nM with a flow rate of […] for 280 s and a dissociation phase of 180 s. Bulk refractive index differences were corrected for by subtracting the response obtained in a reference flow cell, where no FAP was immobilized. Avidity was determined using the Langmuir 1:1 curve fitting. For bivalent binding the same 1:1 fitting was used leading to an apparent KD value.

The target in assay [2] is T2, human fibroblast activation protein (huFAP) (human, UniProt Q12884 1-760).
T2 construct: expressed on transfected NIH/3T3-huFAP clone 19 cells; also called human FAP
As to the kind of experiment: flow cytometry, NIH/3T3-huFAP clone 19 cells, PE anti-human Fc F(ab')2. As to the method:
(§1) NIH/3T3-huFAP clone 19 and NIH/3T3-mFAP clone 26 were generated by the transfection of the mouse embryonic fibroblast NIH/3T3 cell line (ATCC CRL-1658) with the expression vector pETR4921 to express under 1.5 μg/mL Puromycin selection huFAP or mFAP, respectively.
(§2) NIH/3T3-huFAP, NIH/3T3-mFAP or NIH/3T3-wt cells were cultured with 1× Dulbecco's Modified Eagle's Medium (DMEM) (Gibco, Cat. No. 42430-025) supplemented with 10% Fetal Bovine Serum (FBS) (life technologies, Cat. No. 16140, Lot No. 1797306A). For the NIH/3T3-huFAP and NIH/3T3-mFAP cells 1.5 μg/mL Puromycin (Gibco, Cat. No. A11138-03) was added to the medium for selection of FAP-expressing cells. NIH/3T3 cells were removed from the plate by using enzyme-free Cell Dissociation Buffer (Gibco, Cat. No. 13151014). 0.3×10⁵ NIH/3T3-huFAP clone 19, NIH/3T3-mFAP clone 26 or NIH/3T3-wt were added in 200 μl of 1×DMEM 10% FBS to each well of a round-bottom 96-well plate (Greiner Bio-One, CELLSTAR®, Cat. No. 650185). Plates were centrifuged 5 minutes at 1700 rpm and supernatants were flicked off. Cells were washed once with 200 μL of 4° C. cold FACS buffer (eBioscience, Cat. No. 00-4222-26). All samples were resuspended in 50 μL/well of 4° C. cold FACS buffer containing the bispecific antigen binding molecules (primary antibody) or isotype control antibody DP47 at the indicated range of concentrations (in duplicates) and incubated for 120 minutes at 4° C. Afterwards the cells were washed three times with 200 μL 4° C. cold FACS buffer. Cells were further stained with 25 μL/well of 4° C. cold secondary antibody solution (1:50 dilution of secondary antibody) containing R-Phycoerythrin (PE) conjugated AffiniPure F(ab′)₂ Fragment Goat Anti-Human IgG, Fcγ Fragment Specific (Jackson ImmunoResearch, Cat. No. 109-116-098) and incubated for 60 minutes at 4° C. in the dark. Cells were washed with 200 μl FACS buffer and resuspended in 85 μL/well FACS-buffer containing 0.2 μg/mL DAPI (Roche, Cat. No. 10236276001) and acquired the same day using 5-laser LSR-Fortessa (BD Bioscience with DIVA software). Data analysis was performed using the FlowJo version 10 software (FlowJo LLC).

Assay [3] deals with T3, mouse fibroblast activation protein (mFAP) (mouse, UniProt P97321 1-761).
T3 construct: expressed on transfected NIH/3T3-mFAP clone 26 cells; also called murine FAP; mouse FAP
T3 sequence (P97321 whole entry): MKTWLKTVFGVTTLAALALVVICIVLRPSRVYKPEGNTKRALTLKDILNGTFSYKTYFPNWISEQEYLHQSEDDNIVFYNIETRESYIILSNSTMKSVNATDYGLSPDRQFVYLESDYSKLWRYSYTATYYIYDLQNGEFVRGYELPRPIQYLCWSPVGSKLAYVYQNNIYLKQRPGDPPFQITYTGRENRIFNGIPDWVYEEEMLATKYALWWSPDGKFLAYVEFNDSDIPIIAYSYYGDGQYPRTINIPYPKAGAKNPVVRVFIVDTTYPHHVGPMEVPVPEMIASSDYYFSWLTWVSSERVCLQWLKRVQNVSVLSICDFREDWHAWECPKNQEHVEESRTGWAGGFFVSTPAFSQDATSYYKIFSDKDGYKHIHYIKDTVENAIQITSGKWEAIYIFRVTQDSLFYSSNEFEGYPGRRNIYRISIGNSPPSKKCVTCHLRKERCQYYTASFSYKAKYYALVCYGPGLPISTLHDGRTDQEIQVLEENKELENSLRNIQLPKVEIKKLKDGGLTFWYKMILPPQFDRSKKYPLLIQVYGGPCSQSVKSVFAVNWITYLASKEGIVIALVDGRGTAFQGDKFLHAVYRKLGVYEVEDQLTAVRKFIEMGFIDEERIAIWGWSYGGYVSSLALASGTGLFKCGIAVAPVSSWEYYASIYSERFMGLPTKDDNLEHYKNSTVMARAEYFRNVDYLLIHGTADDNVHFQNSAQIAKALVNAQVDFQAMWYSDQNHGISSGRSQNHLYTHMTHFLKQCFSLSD
As to the kind of experiment: flow cytometry on NIH/3T3-mFAP cells (3T3_mFAP), PE-labelled anti-human IgG Fcgamma F(ab')2 secondary, MFI baseline corrected. As to the method: as §1, §2

B1: 4B9 IgG1 (antibody, V domains shown)
VH: EVQLLESGGGLVQPGGSLRLSCAASGFTFSSYAMSWVRQAPGKGLEWVSAIIGSGASTYYADSVKGRFTISRDNSKNTLYLQMNSLRAEDTAVYYCAKGWFGGFNYWGQGTLVTVSS
VL: EIVLTQSPGTLSLSPGERATLSCRASQSVTSSYLAWYQQKPGQAPRLLINVGSRRATGIPDRFSGSGSGTDFTLTISRLEPEDFAVYYCQQGIMLPPTFGQGTKVEIK
notes: IgG1; also called Control; FAP(4B9)
B1: in assay [1], the Kd is 0.08 nM, the off-rate constant (koff) worked out at 0.000172 s⁻¹ and the kon came out at 2.19e+06 M⁻¹ s⁻¹.

B2: P1AD4520 or P1AD9139 mu CD40 (FGK4.5) × FAP (28H1) (4 + 1) (bispecific antibody, mouse IgG1, kappa)
heavy 1: EVQLVESDGGLVQPGRSLKLPCAASGFTFSDYYMAWVRQAPTKGLEWVASISYDGSSTYYRDSVKGRFTISRDNAKSTLYLQMDSLRSEDTATYYCGRHSSYFDYWGQGVMVTVSSAKTTPPSVYPLAPGSAAQTNSMVTLGCLVKGYFPEPVTVTWNSGSLSSGVHTFPAVLQSDLYTLSSSVTVPSSTWPSQTVTCNVAHPASSTKVDKKIVPRDCGGGGSGGGGSEVQLVESDGGLVQPGRSLKLPCAASGFTFSDYYMAWVRQAPTKGLEWVASISYDGSSTYYRDSVKGRFTISRDNAKSTLYLQMDSLRSEDTATYYCGRHSSYFDYWGQGVMVTVSSAKTTPPSVYPLAPGSAAQTNSMVTLGCLVKGYFPEPVTVTWNSGSLSSGVHTFPAVLQSDLYTLSSSVTVPSSTWPSQTVTCNVAHPASSTKVDKKIVPRDCGCKPCICTVPEVSSVFIFPPKPKDVLTITLTPKVTCVVVAISKDDPEVQFSWFVDDVEVHTAQTKPREEQINSTFRSVSELPIMHQDWLNGKEFKCRVNSAAFGAPIEKTISKTKGRPKAPQVYTIPPPKKQMAKDKVSLTCMITNFFPEDITVEWQWNGQPAENYKNTQPIMKTDGSYFVYSKLNVQKSNWEAGNTFTCSVLHEGLHNHHTEKSLSHSPGGGGGSGGGGSGGGGSGGGGSEVQLLESGGGLVQPGGSLRLSCAASGFTFSSHAMSWVRQAPGKGLEWVSAIWASGEQYYADSVKGRFTISRDNSKNTLYLQMNSLRAEDTAVYYCAKGWLGNFDYWGQGTLVTVSS
heavy 2: EVQLVESDGGLVQPGRSLKLPCAASGFTFSDYYMAWVRQAPTKGLEWVASISYDGSSTYYRDSVKGRFTISRDNAKSTLYLQMDSLRSEDTATYYCGRHSSYFDYWGQGVMVTVSSAKTTPPSVYPLAPGSAAQTNSMVTLGCLVKGYFPEPVTVTWNSGSLSSGVHTFPAVLQSDLYTLSSSVTVPSSTWPSQTVTCNVAHPASSTKVDKKIVPRDCGGGGSGGGGSEVQLVESDGGLVQPGRSLKLPCAASGFTFSDYYMAWVRQAPTKGLEWVASISYDGSSTYYRDSVKGRFTISRDNAKSTLYLQMDSLRSEDTATYYCGRHSSYFDYWGQGVMVTVSSAKTTPPSVYPLAPGSAAQTNSMVTLGCLVKGYFPEPVTVTWNSGSLSSGVHTFPAVLQSDLYTLSSSVTVPSSTWPSQTVTCNVAHPASSTKVDKKIVPRDCGCKPCICTVPEVSSVFIFPPKPKDVLTITLTPKVTCVVVAISKDDPEVQFSWFVDDVEVHTAQTKPREEQINSTFRSVSELPIMHQDWLNGKEFKCRVNSAAFGAPIEKTISKTKGRPKAPQVYTIPPPKEQMAKDKVSLTCMITNFFPEDITVEWQWNGQPAENYDNTQPIMDTDGSYFVYSDLNVQKSNWEAGNTFTCSVLHEGLHNHHTEKSLSHSPGGGGGSGGGGSGGGGSGGGGSEIVLTQSPGTLSLSPGERATLSCRASQSVSRSYLAWYQQKPGQAPRLLIIGASTRATGIPDRFSGSGSGTDFTLTISRLEPEDFAVYYCQQGQVIPPTFGQGTKVEIK
light: DTVLTQSPALAVSPGERVTISCRASDSVSTLMHWYQQKPGQQPKLLIYLASHLESGVPARFSGSGSGTDFTLTIDPVEADDTATYYCQQSWNDPWTFGGGTKLELKRADAAPTVSIFPPSSEQLTSGGASVVCFLNNFYPKDINVKWKIDGSERQNGVLNSWTDQDSKDSTYSMSSTLTLTKDEYERHNSYTCEATHKTSTSPIVKSFNRNEC
notes: murine surrogate, tetravalent for mouse CD40, monovalent for FAP (28H1); mouse IgG1 DAPG, DD/KK; also called 4 + 1 with C-terminal VH/VL fusion; muCD40-28H1
As to B2, in assay [1], the Kd was found to be 2.7 nM, the koff was 0.00155 s⁻¹ and the kon worked out at 576000 M⁻¹ s⁻¹.

B3: P1AA9641 CD40 × FAP (28H1) (2 + 1) (bispecific antibody, human IgG1, kappa, L234A L235A)
heavy 1: EVQLVESGGGLVQPGGSLRLSCAASGYSFTGYYIHWVRQAPGKGLEWVARVIPNAGGTSYNQKFKGRFTLSVDNSKNTAYLQMNSLRAEDTAVYYCAREGIYWWGQGTLVTVSSASTKGPSVFPLAPSSKSTSGGTAALGCLVKDYFPEPVTVSWNSGALTSGVHTFPAVLQSSGLYSLSSVVTVPSSSLGTQTYICNVNHKPSNTKVDKKVEPKSCDKTHTCPPCPAPEAAGGPSVFLFPPKPKDTLMISRTPEVTCVVVDVSHEDPEVKFNWYVDGVEVHNAKTKPREEQYNSTYRVVSVLTVLHQDWLNGKEYKCKVSNKALGAPIEKTISKAKGQPREPQVCTLPPSRDELTKNQVSLSCAVKGFYPSDIAVEWESNGQPENNYKTTPPVLDSDGSFFLVSKLTVDKSRWQQGNVFSCSVMHEALHNHYTQKSLSLSPGGGGGSGGGGSGGGGSGGGGSEIVLTQSPGTLSLSPGERATLSCRASQSVSRSYLAWYQQKPGQAPRLLIIGASTRATGIPDRFSGSGSGTDFTLTISRLEPEDFAVYYCQQGQVIPPTFGQGTKVEIK
heavy 2: not shown
light: DIQMTQSPSSLSASVGDRVTITCRSSQSLVHSNGNTFLHWYQQKPGKAPKLLIYTVSNRFSGVPSRFSGSGSGTDFTLTISSLQPEDFATYFCSQTTHVPWTFGQGTKVEIKRTVAAPSVFIFPPSDEQLKSGTASVVCLLNNFYPREAKVQWKVDNALQSGNSQESVTEQDSKDSTYSLSSTLTLSKADYEKHKVYACEVTHQGLSSPVTKSFNRGEC
notes: 28H1 VH and VL fused to the C-termini of the knob and hole heavy chains; also called CD40 × FAP 2 + 1; huCD40-28H1
Regarding B3, in assay [2], the EC50 was 33 nM. Besides, the binding result in assay [3] is on record as “binds”.

B4: P1AD4453 CD40 × FAP (28H1) (4 + 1) (bispecific antibody, human IgG1, kappa, L234A L235A)
heavy 1: not shown
heavy 2: EVQLVESGGGLVQPGGSLRLSCAASGYSFTGYYIHWVRQAPGKGLEWVARVIPNAGGTSYNQKFKGRFTLSVDNSKNTAYLQMNSLRAEDTAVYYCAREGIYWWGQGTLVTVSSASTKGPSVFPLAPSSKSTSGGTAALGCLVKDYFPEPVTVSWNSGALTSGVHTFPAVLQSSGLYSLSSVVTVPSSSLGTQTYICNVNHKPSNTKVDKKVEPKSCDGGGGSGGGGSEVQLVESGGGLVQPGGSLRLSCAASGYSFTGYYIHWVRQAPGKGLEWVARVIPNAGGTSYNQKFKGRFTLSVDNSKNTAYLQMNSLRAEDTAVYYCAREGIYWWGQGTLVTVSSASTKGPSVFPLAPSSKSTSGGTAALGCLVKDYFPEPVTVSWNSGALTSGVHTFPAVLQSSGLYSLSSVVTVPSSSLGTQTYICNVNHKPSNTKVDKKVEPKSCDKTHTCPPCPAPEAAGGPSVFLFPPKPKDTLMISRTPEVTCVVVDVSHEDPEVKFNWYVDGVEVHNAKTKPREEQYNSTYRVVSVLTVLHQDWLNGKEYKCKVSNKALGAPIEKTISKAKGQPREPQVCTLPPSRDELTKNQVSLSCAVKGFYPSDIAVEWESNGQPENNYKTTPPVLDSDGSFFLVSKLTVDKSRWQQGNVFSCSVMHEALHNHYTQKSLSLSPGGGGGSGGGGSGGGGSGGGGSEIVLTQSPGTLSLSPGERATLSCRASQSVSRSYLAWYQQKPGQAPRLLIIGASTRATGIPDRFSGSGSGTDFTLTISRLEPEDFAVYYCQQGQVIPPTFGQGTKVEIK
light: DIQMTQSPSSLSASVGDRVTITCRSSQSLVHSNGNTFLHWYQQKPGKAPKLLIYTVSNRFSGVPSRFSGSGSGTDFTLTISSLQPEDFATYFCSQTTHVPWTFGQGTKVEIKRTVAAPSVFIFPPSDEQLKSGTASVVCLLNNFYPREAKVQWKVDNALQSGNSQESVTEQDSKDSTYSLSSTLTLSKADYEKHKVYACEVTHQGLSSPVTKSFNRGEC
notes: 28H1 VH and VL fused to the C-termini of the knob and hole heavy chains; also called CD40 × FAP 4 + 1; huCD40-28H1
Take B4: the midpoint of the response in assay [2], the EC50, lay at 47.1 nM. In addition, in assay [3], the binding result is on record as “binds”.
